Tests used:
collagen type I (CI) [1] = test: SPR binding of MMPs to immobilized CI, nonactivating buffer; design: species or system human; details: for Off rate / Kd: without (GPO)10, MMP 100 nM, PBS, 0.05% Tween 20, 25°C; for Off rate: mean from at least three experiments; for Kd: mean ± SD, at least three experiments
Description: (§1) Sensor chip preparations and SPR measurements were performed using a BiacoreX device and the Bia-evaluation software (version 3.2; Biacore, Uppsala, Sweden). The pepsin-resistant triple-helical part of human fibrillar CI (100 μg/ml) in 10 mM acetate coupling buffer, pH 4.8, was immobilized to a dextran matrix-sensor chip at a flow rate of 5 μl/min, resulting in 5,500 resonance units from CI covalently linked via its primary amino groups. The control flow cell was prepared using the coupling buffer without CI. Surfaces were activated and blocked as described previously. Immediately after thawing, pro- and actMMP-2 and pro- and actMMP-9 were diluted to 100 to 250 nM in MMP activity buffer or in PBS and 0.05% (vol/vol) Tween 20. For SPR measurements, flow rates were 10 μl/min at 25°C, and equilibrium was typically reached after 30 to 60 s. The effects of (GPO)10, GAP, (POG)5, (GPP)10 and P33-42 on MMP-2 and MMP-9 binding to CI and their enzymatic activity were determined by adding the binding competitors to the (pro- and act)MMP-2 and MMP-9 solution in 10- to 150-fold molar excesses. Effects independent of MMP-2 and MMP-9 activity were monitored in the presence of Ro 28-2653 (1 μM) during SPR analysis. The gelatinase inhibitor Ro 28-2653 was a generous gift from H.-W. Krell (Roche, Grenzach-Wyhlen, Germany). Sensor surfaces were regenerated with 10 mM glycine, pH 2.3, for 1 min between runs, and sensor chips were used up to 25 times. Kinetic parameters were analyzed using the 1:1 binding model with drifting baseline and subtraction of the control flow cell binding from sensorgrams obtained with immobilized CI. Binding constants (Kd) were calculated from the association (ka) and dissociation rates (kd) obtained from individual binding curves at different concentrations. Individual drifts of the resonance signal were fitted locally, and χ^2 values of 0.2% to 1.0% of the maximum resonance value were considered good fits.

collagen type I (CI) [2] = test: SPR binding of MMP-2 to CI, MMP activity buffer with Ro 28-2653; design: species or system human
Description: as §1

[3] = In situ binding of MMPs to fibrotic liver sections; design: species or system human; details: immunohistochemistry; 25 ng MMP, 30 min
Description: Human cirrhotic liver cryostat sections (5 μm) were air-dried and fixed in ice-cold acetone for 10 min. Tissue sections were rehydrated with PBS and incubated with 25 ng/50 μl of the respective proMMP and actMMP for 30 min or were left untreated. After thorough washing with PBS, antibodies specific for human MMP-9 (clone MAB911; R&D Systems, Minneapolis, MN, USA) and human MMP-2 (clone 75-7F7; Oncogene, Cambridge, MA, USA) were applied, and primary antibody binding was detected using the alkaline phosphatase-antialkaline phosphatase detection system (Dako, Hamburg, Germany). An irrelevant primary mouse antibody served as control. Nuclei were counterstained with Hemalaun, and slides were examined by standard light microscopy.

ProMMP-2 = test: DQ-gelatine degradation assay with MMP-2; assay type: biochemical, human; details: MMP alone; 10 ng; 5 h at 25°C; plateau (actMMP-2) or baseline (proMMP-2) level

Row | reduction of binding upon MMP activation (collagen type I (CI) [1]; nonactivating buffer) | Off rate (collagen type I (CI) [1]) [s⁻¹] | Kd (collagen type I (CI) [1]) [nM] | reduction of binding upon MMP activation (collagen type I (CI) [2]; MMP activity buffer with Ro 28-2653) | binding enhancement to CI (collagen type I (CI) [2]; MMP activity buffer with Ro 28-2653 vs nonactivating buffer) | Kd (collagen type I (CI) [2]; no competitor, MMP-2 100 nM, MMP activity buffer, 1 μM Ro 28-2653, 25°C, mean ± SD, at least three experiments) [nM] | binding to liver sections [3] | Molecule | DQ-gelatine conversion (ProMMP-2)
1 | 2.5 -fold | ~0.48 | 70 ± 30 | 35 -fold | 10 -fold | 7.1 ± 0.1 | preferential staining of fibrotic septa | ProMMP-2: 72-kDa latent proform of human recombinant MMP-2 (protein, [125I]-Bolton-Hunter label in the solid-phase assays (dot blot, microwells); Cy2 label in the tissue release experiment; no label told for SPR and immunohistochemistry) APSPIIKFPGDVAPKTDKELAVQYLNTFYGCPKESCNLFVLKDTLKKMQKFFGLPQTGDLDQNTIETMRKPRCGNPDVANYNFFPRKPKWDKNQITYRIIGYTPDLDPETVDDAFARAFQVWSDVTPLRFSRIHDGEADIMINFGRWEHGDGYPFDGKDGLLAHAFAPGTGVGGDSHFDDDELWTLGEGQVVRVKYGNADGEYCKFPFLFNGKEYNSCTDTGRSDGFLWCSTTYNFEKDGKYGFCPHEALFTMGGNAEGQPCKFPFRFQGTSYDSCTTEGRTDGYRWCGTTEDYDRDKKYGFCPETAMSTVGGNSEGAPCVFPFTFLGNKYESCTSAGRSDGKMWCATTANYDDDRKWGFCPDQGYSLFLVAAHEFGHAMGLEHSQDPGALMAPIYTYTKNFRLSQDDIKGIQELYGASPDIDLGTGPTPTLGPVTPEICKQDIVFDGIAQIRGEIFFFKDRFIWRTVTPRDKPMGPLLVATFWPELPEKIDAVYEAPQEEKAVFFAGNEYWIYSASTLERGYPKPLTSLGLPPDVQRVDAAFNWSKNKKTYIFAGDKFWRYNEVKKKMDPGFPKLIADAWNAIPDNLDAVVDLQGGGHSYFFKGAYYLKLENQSLKSVKFGSIKSDWLGC | about 200 relative fluorescence units
2 | – | 0.32 | 120 ± 90 | – | – | – | preferential staining of fibrotic septa | ProMMP-9: 92-kDa latent proform of human recombinant MMP-9 (protein, [125I]-Bolton-Hunter label in the solid-phase assays (dot blot, microwells); no label told for SPR and immunohistochemistry) APRQRQSTLVLFPGDLRTNLTDRQLAEEYLYRYGYTRVAEMRGESKSLGPALLLLQKQLSLPETGELDSATLKAMRTPRCGVPDLGRFQTFEGDLKWHHHNITYWIQNYSEDLPRAVIDDAFARAFALWSAVTPLTFTRVYSRDADIVIQFGVAEHGDGYPFDGKDGLLAHAFPPGPGIQGDAHFDDDELWSLGKGVVVPTRFGNADGAACHFPFIFEGRSYSACTTDGRSDGLPWCSTTANYDTDDRFGFCPSERLYTQDGNADGKPCQFPFIFQGQSYSACTTDGRSDGYRWCATTANYDRDKLFGFCPTRADSTVMGGNSAGELCVFPFTFLGKEYSTCTSEGRGDGRLWCATTSNFDSDKKWGFCPDQGYSLFLVAAHEFGHALGLDHSSVPEALMYPMYRFTEGPPLHKDDVNGIRHLYGPRPEPEPRPPTTTTPQPTAPPTVCPTGPPTVHPSERPTAGPTGPPSAGPTGPPTAGPSTATTVPLSPVDDACNVNIFDAIAEIGNQLYLFKDGKYWRFSEGRGSRPQGPFLIADKWPALPRKLDSVFEERLSKKLFFFSGRQVWVYTGASVLGPRRLDKLGLGADVAQVTGALRSGRGKMLLFSGRRLWRFDVKAQMVDPRSASEVDRMFPGVPLDTHDVFQYREKAYFCQDRFYWRVSSRSELNQVDQVGYVTYDILQCPED | –

Reference: PMC3024946, “Hydroxyproline-containing collagen analogs trigger the release and activation of collagen-sequestered proMMP-2 by competition with prodomain-derived peptide P33-42” (Fibrogenesis & Tissue Repair, 2011)
